Assay results taken from US20230220381.
pKd: −log10 of the molar value.

What was measured:
Thrombin (Homo sapiens) [1] = target: T1, Thrombin (Homo sapiens) (UniProt P00734+P00734); test: FP
Thrombin (Homo sapiens) [2] = target: T1, Thrombin (Homo sapiens); test: MST; conditions: Phe at library positions 5 and 3, C12 at position 4, Nap at position 1 (3' end) (unnatural monomers); 2Bind, N=2, 100 nM aptamer, buffer without Triton X; unit given as nmol

GGTPTGGPHECTGGTTGGG [Aptamer2]
pKd (Thrombin (Homo sapiens) [1]; Trp at library position 7, Phe at position 5, C12 at position 4 (unnatural monomers), fluorescence anisotropy, unit given as nmol): 8.00
pKd (Thrombin (Homo sapiens) [1]; Trp at library position 7, Phe at position 5, C12 at position 4 (unnatural monomers), with 0.1 mg/mL salmon sperm DNA, N=3, unit given as nmol): 8.00

GGTTGGTGTGGTTGGNAP [Aptamer4 of Table 9 (Nap at position 1; Aptamer5 in FIG. 12)]
pKd (Thrombin (Homo sapiens) [1]; Nap unnatural monomer at library position 1 (3' end), unit given as nmol, Aptamer4/5 naming swapped in FIG. 12, Table 9 sequence used): 7.62

GGTTGGPHEGTGGTTGGT [Aptamer1]
pKd (Thrombin (Homo sapiens) [1]; Phe unnatural monomer at library position 5, fluorescence anisotropy, unit given as nmol): 7.59

GGGTGGPHECTGGPHETGGNAP [Aptamer3]
pKd (Thrombin (Homo sapiens) [1]; Phe at library positions 5 and 3, C12 at position 4, Nap at position 1 (3' end) (unnatural monomers), fluorescence anisotropy with 0.1 mg/mL sheared salmon sperm DNA, N=3, unit given as nmol): 8.30
pKd (Thrombin (Homo sapiens) [1]; Phe at library positions 5 and 3, C12 at position 4, Nap at position 1 (3' end) (unnatural monomers), fluorescence anisotropy, thrombin binding buffer, unit given as nmol): 8.22
pKd (Thrombin (Homo sapiens) [2]): 7.70

CGTCGAGGCCCGTGCTTACCCGTGACCTTCTTAGGAGGTTGGNGTGGNTGGTTTTTACACGTCACGCCTTTTTTTTT [TBA2F]
pKd (Thrombin (Homo sapiens) [1]; branched DNA-encoded construct with BU, aptamer branch GGTTGGC12GTGGAlkTGGTTTTT (C12 and Alk unnatural phosphodiester monomers), same buffer as TBA1F): 7.05
